± gives the uncertainty stated by the source.
B1: RUN and FYVE domain-containing protein 1, residues 639 to 698; numbered along this chain, Q96T51 (parent)
chain: WLKDDEATHCRQCEKEFSISRRKHHCRNCGHIFCNTCSSNELALPSYPKPVRVCDSCHTL

Variants of: B1
Test: abundance fitness (aPCA) (normalised: wild type 0, dead -1); higher = more abundant; growth selection in yeast, the domain comes from the species named
Conditions: Homo sapiens

First: WLKDDEATHCRQCEKEFSISRRKHHCRNCGHPFCNTCSSNELALPSYPKPVRVCDSCHTL [I32P]
Second: WLKDDEATHCRQCEKEFSISRRKHHCRNCGHNFCNTCSSNELALPSYPKPVRVCDSCHTL [I32N]
The abundance fitness of the first is higher: 0.109 ± 0.053 for the first, -0.05 ± 0.1 for the second.

WLKDDEATHCRQCEKEFSISRRKHHCRNCGHGFCNTCSSNELALPSYPKPVRVCDSCHTL [I32G] and WLKDDEATHCRQCEKEFSISRRKHHCRNCGHEFCNTCSSNELALPSYPKPVRVCDSCHTL [I32E] are within error of each other in abundance fitness: 0.195 ± 0.04 for the first, 0.074 ± 0.088 for the second.

WLKDDEATHCRQCEKEFSISRRKHHCRNCGHVFCNTCSSNELALPSYPKPVRVCDSCHTL [I32V] and WLKDDEATHCRQCEKEFSISRRKHHCRNCGHQFCNTCSSNELALPSYPKPVRVCDSCHTL [I32Q] are within error of each other in abundance fitness: 0.04 ± 0.045 for the first, 0.045 ± 0.045 for the second.

WLKDDEATHCRQCEKEFSISRRKHHCRNCGHCFCNTCSSNELALPSYPKPVRVCDSCHTL [I32C] and WLKDDEATHCRQCEKEFSISRRKHHCRNCGHHFCNTCSSNELALPSYPKPVRVCDSCHTL [I32H] are within error of each other in abundance fitness: -0.105 ± 0.059 for the first, -0.24 ± 0.18 for the second.

First: WLKDDEATHCRQCEKEFSISRRKHHCRNCGHIFKNTCSSNELALPSYPKPVRVCDSCHTL [C34K]
Second: WLKDDEATHCRQCEKEFSISRRKHHCRNCGHIFFNTCSSNELALPSYPKPVRVCDSCHTL [C34F]
The abundance fitness of the first is higher: -0.493 ± 0.14 for the first, -0.853 ± 0.082 for the second.

WLKDDEATHCRQCEKEFSISRRKHHCRNCGHIFDNTCSSNELALPSYPKPVRVCDSCHTL [C34D] and WLKDDEATHCRQCEKEFSISRRKHHCRNCGHIFQNTCSSNELALPSYPKPVRVCDSCHTL [C34Q] are within error of each other in abundance fitness: -0.577 ± 0.075 for the first, -0.542 ± 0.074 for the second.

WLKDDEATHCRQCEKEFSISRRKHHCRNCGHIFINTCSSNELALPSYPKPVRVCDSCHTL [C34I] and WLKDDEATHCRQCEKEFSISRRKHHCRNCGHIFRNTCSSNELALPSYPKPVRVCDSCHTL [C34R] are within error of each other in abundance fitness: -0.71 ± 0.096 for the first, -0.642 ± 0.049 for the second.

WLKDDEATHCRQCEKEFSISRRKHHCRNCGHIFNNTCSSNELALPSYPKPVRVCDSCHTL [C34N] and WLKDDEATHCRQCEKEFSISRRKHHCRNCGHIFTNTCSSNELALPSYPKPVRVCDSCHTL [C34T] are within error of each other in abundance fitness: -0.709 ± 0.11 for the first, -0.612 ± 0.057 for the second.

WLKDDEATHCRQCEKEFSISRRKHHCRNCGHIFYNTCSSNELALPSYPKPVRVCDSCHTL [C34Y] and WLKDDEATHCRQCEKEFSISRRKHHCRNCGHIFPNTCSSNELALPSYPKPVRVCDSCHTL [C34P] are within error of each other in abundance fitness: -0.682 ± 0.086 for the first, -0.633 ± 0.079 for the second.

Compared with WLKDDEATHCRQCEKEFSISRRKHHCRNCGHIFSNTCSSNELALPSYPKPVRVCDSCHTL [C34S], WLKDDEATHCRQCEKEFSISRRKHHCRNCGHIFHNTCSSNELALPSYPKPVRVCDSCHTL [C34H] is higher in abundance fitness: -0.758 ± 0.053 for the first, -0.44 ± 0.08 for the second.

WLKDDEATHCRQCEKEFSISRRKHHCRNCGHIFWNTCSSNELALPSYPKPVRVCDSCHTL [C34W] and WLKDDEATHCRQCEKEFSISRRKHHCRNCGHIFANTCSSNELALPSYPKPVRVCDSCHTL [C34A] are within error of each other in abundance fitness: -0.736 ± 0.067 for the first, -0.659 ± 0.065 for the second.

Going from WLKDDEATHCRQCEKEFSISRRKHHCRNCGHIFMNTCSSNELALPSYPKPVRVCDSCHTL [C34M] to WLKDDEATHCRQCEKEFSISRRKHHCRNCGHIFLNTCSSNELALPSYPKPVRVCDSCHTL [C34L], the abundance fitness falls from -0.398 ± 0.057 to -0.708 ± 0.052.

First: WLKDDEATHCRQCEKEFSISRRKHHCRNCGHIFGNTCSSNELALPSYPKPVRVCDSCHTL [C34G]
Second: WLKDDEATHCRQCEKEFSISRRKHHCRNCGHIFVNTCSSNELALPSYPKPVRVCDSCHTL [C34V]
The abundance fitness of the first is lower: -0.608 ± 0.045 for the first, -0.496 ± 0.055 for the second.

Compared with WLKDDEATHCRQCEKEFSISRRKHHCRNCGHIVCNTCSSNELALPSYPKPVRVCDSCHTL [F33V], WLKDDEATHCRQCEKEFSISRRKHHCRNCGHIQCNTCSSNELALPSYPKPVRVCDSCHTL [F33Q] is lower in abundance fitness: 0.076 ± 0.038 for the first, -0.38 ± 0.061 for the second.

WLKDDEATHCRQCEKEFSISRRKHHCRNCGHITCNTCSSNELALPSYPKPVRVCDSCHTL [F33T] and WLKDDEATHCRQCEKEFSISRRKHHCRNCGHIICNTCSSNELALPSYPKPVRVCDSCHTL [F33I] are within error of each other in abundance fitness: -0.238 ± 0.053 for the first, -0.171 ± 0.06 for the second.

WLKDDEATHCRQCEKEFSISRRKHHCRNCGHIMCNTCSSNELALPSYPKPVRVCDSCHTL [F33M] and WLKDDEATHCRQCEKEFSISRRKHHCRNCGHIWCNTCSSNELALPSYPKPVRVCDSCHTL [F33W] are within error of each other in abundance fitness: -0.378 ± 0.051 for the first, -0.455 ± 0.058 for the second.

Going from WLKDDEATHCRQCEKEFSISRRKHHCRNCGHIRCNTCSSNELALPSYPKPVRVCDSCHTL [F33R] to WLKDDEATHCRQCEKEFSISRRKHHCRNCGHICCNTCSSNELALPSYPKPVRVCDSCHTL [F33C], the abundance fitness rises from -0.6 ± 0.053 to 0.059 ± 0.11.

WLKDDEATHCRQCEKEFSISRRKHHCRNCGHINCNTCSSNELALPSYPKPVRVCDSCHTL [F33N] and WLKDDEATHCRQCEKEFSISRRKHHCRNCGHIGCNTCSSNELALPSYPKPVRVCDSCHTL [F33G] are within error of each other in abundance fitness: -0.488 ± 0.12 for the first, -0.537 ± 0.069 for the second.

Going from WLKDDEATHCRQCEKEFSISRRKHHCRNCGHIKCNTCSSNELALPSYPKPVRVCDSCHTL [F33K] to WLKDDEATHCRQCEKEFSISRRKHHCRNCGHISCNTCSSNELALPSYPKPVRVCDSCHTL [F33S], the abundance fitness rises from -0.602 ± 0.069 to -0.47 ± 0.053.

WLKDDEATHCRQCEKEFSISRRKHHCRNCGHIHCNTCSSNELALPSYPKPVRVCDSCHTL [F33H] and WLKDDEATHCRQCEKEFSISRRKHHCRNCGHIECNTCSSNELALPSYPKPVRVCDSCHTL [F33E] are within error of each other in abundance fitness: -0.458 ± 0.16 for the first, -0.576 ± 0.086 for the second.

First: WLKDDEATHCRQCEKEFSISRRKHHCRNCGHIDCNTCSSNELALPSYPKPVRVCDSCHTL [F33D]
Second: WLKDDEATHCRQCEKEFSISRRKHHCRNCGHIYCNTCSSNELALPSYPKPVRVCDSCHTL [F33Y]
The abundance fitness of the first is lower: -0.573 ± 0.14 for the first, 0.005 ± 0.11 for the second.

First: WLKDDEATHCRQCEKEFSISRRKHHCRNCGHIPCNTCSSNELALPSYPKPVRVCDSCHTL [F33P]
Second: WLKDDEATHCRQCEKEFSISRRKHHCRNCGHIFCNDCSSNELALPSYPKPVRVCDSCHTL [T36D]
The abundance fitness of the first is lower: -0.888 ± 0.091 for the first, 0.401 ± 0.048 for the second.

WLKDDEATHCRQCEKEFSISRRKHHCRNCGHIFCNACSSNELALPSYPKPVRVCDSCHTL [T36A] gave an abundance fitness of 0.349 ± 0.041.

Reference: the Human Domainome abundance scans (Beltran et al. 2025)
